Data: the supplement of paper PMC9170038

Tested on: MS2 coat protein
Experiment: apparent KD of MS2 coat protein; designed switch direction (-1 OFF switch, 1 ON switch): -1; higher = weaker reporter binding
How it was run: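 Designed RNA switches with common flanks were made on Illumina chips by stalled E. coli RNA polymerase. Titration with SNAP-549-labelled MS2 coat protein doubled from 0.7 or 1.5 nM up to 3 µM. Apparent KD is each design's median over clusters after curve-fitting normalised fluorescence.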

[1] = input ligand: microRNA oligo, concentration not stated
[2] = Eterna round: R95, input ligand: FMN 200 uM
[3] = Eterna round: R95, input ligand: microRNA oligo, concentration not stated
[4] = Eterna round: R95, input ligand: none

Sequence | apparent KD of MS2 coat protein (input ligand: FMN 200 uM) | apparent KD of MS2 coat protein [1] | apparent KD of MS2 coat protein (input ligand: none) | apparent KD of MS2 coat protein [2] | apparent KD of MS2 coat protein [3] | apparent KD of MS2 coat protein [4]
AACCUGAGGCAAAGCUUUAGGUGUACAUGAGGAUCACCCAUGUAGGAUAUGGUAGGCAAAGCUUACCAGAAGGACAUAAUGAUG [Mat - Exclusion NG 3 - Mod of JL - D47] (Eterna round: R96, puzzle: Exclusion NG 3) | 100 nM | 45.1 nM | 83.7 nM | – | – | –
CAUGAUCUUCGGAUCAUGGACAUGAGGAUCACCCAUGUCACGAGCAGAUCUUCAUGCAAGCUUUUUGCUCGUCUUAU [Sensor v3 - Turn-off variant 1 - 38] (puzzle: Sensor v3, turn-off variant 1) | – | – | – | 28 nM | 405 nM | 29.8 nM
CCGACUCAAGGAUAUUGUACUGCUGACAUGAGGAUCACCCAUGUGUCCUGACGCGGACGACGAGAAGGUGACGACA [Eternabot (Original) Solution 44] (Eterna round: R97, puzzle: Exclusion 5) | 981 nM | – | 292 nM | – | – | –
ACAUGUGUUGUAGGAUAUAGGAUACAUGAGGAUCACCCAUGUGGAUUCAUGUCUAAGGAAGCGUCCUAGAAGGACGACAACAUG [Ex NG2 #25] (Eterna round: R96, puzzle: Exclusion NG 2) | 83 nM | 21.6 nM | 27.6 nM | – | – | –
AAUUUACAUGAGGAUCACCCAUGUGAGGAUAUAUGCAAAGAAGUGUUAGUAAGAAAGCAUAGAAGGCGCGUGAU [JR_Exc1_Sub041] (Eterna round: R97, puzzle: Exclusion 1) | 64.6 nM | – | 47.8 nM | – | – | –
AAGACACAUGAGGAUCACCCAUGUGAGGAUAUUCGAUGCUGAGCGUAAGCUUAGUAUCGGAGAAGGCACAUAGG [Salishxclusion 8 - Jieux - Exclusion 1] (Eterna round: R97, puzzle: Exclusion 1) | 203 nM | – | 251 nM | – | – | –
AGCGCCAUCGUGAGAUGGCGUAUUACAUGAGGAUCACCCAUGUAGGAUAUCGAUUGCUUUGCAGUCGAGAAGGGCAUGUACCAG [JL ENG3 3.80 Mod K] (Eterna round: R96, puzzle: Exclusion NG 3) | 54.7 nM | 32.8 nM | 46 nM | – | – | –
UUGUUACAUGAGGAUCACCCAUGUGAGGAUAUGGUUAAGUAAUGUAAUGUAAAGUAAUCCAGAAGGCACAUGUU [1st #25] (Eterna round: R97, puzzle: Exclusion 1) | 353 nM | – | 196 nM | – | – | –
ACAUGAUGCUUAGGAUAUGUUCUUACGCCAUGAAUAGAAGGGAGCGGACAGAAGUGACCUGACAUGAGGAUCACCCAUGUCUAA [Isusus] (Eterna round: R96, puzzle: Exclusion NG 1) | 84.4 nM | 48 nM | 80.3 nM | – | – | –
GACCUCACGGUCAGGAUAUCAGAACGGAAUGCGCAUGAGAAGGGACAUGAGGAUCACCCAUGUGGGCUCGUCGC [Eddionce] (puzzle: Brourd's mod of Exclusion 4) | – | – | – | 21.6 nM | 13.9 nM | 17.9 nM
AAAACAAGCAUAAGAUCCCACAUGAGGAUCACCCAUGUGCUCGUCUUAUAAAAGGUUUCGACGAAAACGUCGAGACC [Eli 91 v30] (Eterna round: R97, puzzle: Sensor, turn-off variant 1) | 29.6 nM | – | 29.6 nM | – | – | –
GACCGGACGUGGUCAGGUAACAUGAGGAUCACCCAUGUAGGUCUAGGAACAAGCCUUUUGUAGGCUCGUCUUAUAAA [JR_SV3TOV1_Sub059] (puzzle: Sensor v3, turn-off variant 1) | – | – | – | 47.5 nM | 36.1 nM | 63.6 nM
UGAUCUAGCGGAGGAUAUACAUGAGGAUCACCCAUGUAGAAUCCAUGACCGUAGUCGUGGAUCGUGUAGAAGGCCGCUAGAUCU [JL ENG2 3.71] (Eterna round: R96, puzzle: Exclusion NG 2) | 21.8 nM | 9 nM | 12.5 nM | – | – | –
GACGCUAAAGGAUAUACAUGAGGAUCACCCAUGUUGAGGAAGGUUAGAUGAGGAGUAAGUAGAAGGUUAGACGA [JR_Exclu3_Sub091] (puzzle: Exclusion 3) | – | – | – | 32 nM | 27.4 nM | 30.8 nM
AUUACGUCAGGAUAUGCGUGUUAGACAUGUUUAACCUAAGAACAUGAGGAUCACCCAUGUAGAAGGGACGCUCA [Eternabot (L1) Solution 78] (Eterna round: R97, puzzle: Exclusion 2) | 68.9 nM | – | 64.9 nM | – | – | –
AAUAAGUGAGGAUAUACUAAAAUAUGAAUAAAAUAAAUAAAACAUGAGGAUCACCCAUGUAGAAGGCACAAUAA [JMF's Not so obvious solution 5] (puzzle: Exclusion 2) | – | – | – | 22.6 nM | 23.9 nM | 22.2 nM
CCACUGUCAGGAUAUCGUGCAUAACGUUUACAUUAUAUGUGCGAGAAGGGACAUGAGGAUCACCCAUGUAAACG [Omei Ex4 A28PK1] (Eterna round: R97, puzzle: Exclusion 4) | 604 nM | – | 566 nM | – | – | –
UAUUAGCAAGCGAGAUCCCACAUGAGGAUCACCCAUGUAAGCAUCCAGAAUUACUGGGUGCAAAAGCUCGUCUUAUA [Winner reversed engineered 5] (Eterna round: R97, puzzle: Sensor, turn-off variant 1) | 29.7 nM | – | 31 nM | – | – | –
GGGCCCGGAGGAUAUACAUGAGGAUCACCCAUGUAGGGCUCGGGUAUUCUCGGGCUCUGUAGAAGGCCGGGCCC [-39.6, -36.7 kcal, A 19%, 5,0] (Eterna round: R97, puzzle: Exclusion 3) | 17.5 nM | – | 18.6 nM | – | – | –
AUAUGUGCGAGAGGAUAUCGUGUACAAAGUACACGAGAAGGCUUCACAUGAGGAUCACCCAUGUACCGAGGUGAAACACCUUGA [Omei Exc(NG)1 Bv5] (Eterna round: R96, puzzle: Exclusion NG 1) | 357 nM | 156 nM | 234 nM | – | – | –
UGAUCUUUUGUUAGGAUAUGCUGGGUUUUUUCUCAGCAGAAGGGACAUGAGGAUCACCCAUGUUUUGUCAUAAA [Magic-07] (puzzle: Brourd's mod of Exclusion 4) | – | – | – | – | 20.3 nM | –
ACCUUACUUGAGGAUCACCCAAGUCAGGAUAUACACCAGAAUAAAUCCCAGCCCUGGCGUAGAAGGGACGGGUG [Soesma] (Eterna round: R97, puzzle: Exclusion 1) | 23.9 nM | – | 21.8 nM | – | – | –
UUUUAGAGAGGAUAUACAUUUUUUUAUUUAUUUAUAAUAUUACAUGAGGAUCACCCAUGUAGAAGGCUCAUUUU [My Design] (puzzle: Exclusion 2) | – | – | – | – | 25.8 nM | –
ACCUCACAUGAGGAUCACCCAUGUCAGGAUAUCUAAUAUUGUAGCGUUCCCGACGCUAAGAGAAGGGACAUUAA [EX1 #31] (Eterna round: R97, puzzle: Exclusion 1) | 19.5 nM | – | 16.5 nM | – | – | –
GUCAUCACACAUGGGAUCAACAUGAGGAUCACCCAUGUUGCCAAGCCGUUUGCACGUCUUAUCAUACGUUUUUCGAU [Mod-Jxj] (Eterna round: R97, puzzle: Sensor, turn-off variant 1) | 90.2 nM | – | 99.8 nM | – | – | –
